Laboratory results taken from patent KR20140085790A (dated 2014).

How the values were obtained:
[1] = biological target: T1, 인간 DLL4 단백질 세포외 도메인 (R&D Systems Cat: 1506-D4/CF) (human, UniProt Q9NR61 27-529); experiment: competition ELISA: antibody (2 pM-35 nM) premixed with DLL4 antigen (800 ng/ml), added to coated hNotch-1-hFc; bound DLL4 detected with an HRP anti-His reagent
T1 construct: extracellular domain; Bought protein; also called hDLL4-His; human DLL4; not shown: His tag (hDLL4-His)

[2] = biological target: T1, 인간 DLL4 단백질 세포외 도메인 (R&D Systems Cat: …); experiment: SPR (BIACORE T200), DLL4 coated on the chip, antibody injected

T1 sequence (Q9NR61 27-529): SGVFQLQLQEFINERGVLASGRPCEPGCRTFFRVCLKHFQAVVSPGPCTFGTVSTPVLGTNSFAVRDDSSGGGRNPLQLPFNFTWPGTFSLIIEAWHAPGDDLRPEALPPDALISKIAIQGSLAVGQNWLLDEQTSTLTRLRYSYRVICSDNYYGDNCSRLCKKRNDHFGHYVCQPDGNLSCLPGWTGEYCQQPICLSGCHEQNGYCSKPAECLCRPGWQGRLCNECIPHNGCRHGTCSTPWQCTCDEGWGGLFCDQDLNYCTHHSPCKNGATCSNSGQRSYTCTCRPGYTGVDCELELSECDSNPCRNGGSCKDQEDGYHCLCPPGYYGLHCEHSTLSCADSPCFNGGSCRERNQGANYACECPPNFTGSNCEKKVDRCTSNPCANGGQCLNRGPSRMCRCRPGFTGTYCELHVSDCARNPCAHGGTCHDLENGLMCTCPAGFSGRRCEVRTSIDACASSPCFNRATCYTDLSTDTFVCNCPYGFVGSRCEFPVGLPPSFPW

B1: 인간 단일클론항체 mh2F (항 DLL4 항체) (antibody, V domains shown)
VH: QVQLVQSGAEVKKPGASVKVSCKASGYTFTSYYLHWVRQAPGQGLEWMGIINPSGGSTSFAQKFQGRVTMTRDTSTSTVYMELSSLRSEDTAVYYCARDSAGGTLDVWGQGTMITVSS
VL: SYELTQPPSVSVAPGKTARITCGGNKIGNKGVHWYQQKPGQAPVLVIYYDKDRPSGIPERFSGSNSGNTATLTISRVEAGDEADYYCQVWDRSTVIFGGGTKLTVLG
notes: Isolated from a human scFv phage library; In ELISA it was detected with an HRP-conjugated anti-Fab reagent; also called anti-DLL4 antibody
Question: What does the source list for B1?
Answer: IC50 [1]: 1.03 nM; Kd [2]: 5.27 nM
